Laboratory results as given in publication PMC12703665, “A Trifunctional, Rare-Earth Theranostic Chelator Platform to Enable Diagnostic Nuclear Imaging, Surgical Resection, and Radiotherapy” (Journal of the American Chemical Society, 2025).
Where two headings read alike, the source gives them in different places.

Experiments:
[1] = tested on: PC-3 PIP/flu (PSMA+/PSMA–) tumor xenografts
Procedure: (§1) For in vivo evaluation, athymic nude mice-bearing bilateral PC-3 PIP/flu (PSMA^+/PSMA^–) tumor xenografts were used (Figure ).
Representative PET-CT (Y-86) or SPECT (Lu-177, Tb-161) images were acquired at different time points starting as early as 0.5 h and up to 25-hours post administration of radiotracer. Mice were initially anesthetized with isoflurane gas at 4% isoflurane in oxygen and maintained during scans at 2.0%. PET-CT and SPECT images were normalized to units of percentage of injected dose per cubic centimeter and presented as maximum intensity projected scan (MIPS) images.
PET-CT scans were acquired in a Siemens Inveon Hybrid MicroPET/CT Scanner (Siemens Medical Solutions USA, Inc., Knoxville, TN), and image processing and region of interest (ROI) analysis conducted using the Inveon Research Workstation analysis software. ROI analysis of the PET/CT images was used to estimate tracer uptake in major organs or tissues, and quantitative results are given as percentage of injected dose per cubic centimeter (%ID/cc).
SPECT scans, on the other hand, were collected in a MILabs U-SPECT/CTUHR (ultra high-resolution) system and image processing was carried out using Imalytics preclinical image analysis software.

[2] = tested on: PC-3 PIP/flu (PSMA+/PSMA–) tumor xenografts; assay: in vivo
Procedure: as §1
5.1.1 Urine metabolite analysis
Metabolite analysis was performed by analyzing aliquots of 100 µL of mouse urine collected during biodistribution studies. If the collected urine volume was less than 100 µL, 1X DPBS was added in order to bring it up to a final volume of 100 µL. In cases where the radioactivity present in urine decayed to levels too low for detection by HPLC, fractions eluted from the radioHPLC were collected every 30 seconds, and the amount of radioactivity was estimated via gamma counting (Hidex Automatic Gamma Counter). The chromatogram was then reconstructed by plotting the recorded counts per minute recorded for each fraction […]
5.2 In vitro optical imaging
Tumor tissues were harvested from male, nude, athymic mice bearing xenografts from PC3-PIP (PSMA+) and PC3-flu (PSMA-) were fixed for (24) hours in 10% neutral buffered formalin, processed and embedded into paraffin blocks. Tissues were sectioned at 5µm, dried and then deparaffinized with a 25-minute oven bake at 60°C, followed by a series of xylene and alcohol washes
Antigens were prepared in PerkinElmer’s 1X Antigen Retrieval pH 9.0 (AR900250ML) for 8 minutes in the microwave. Tissue sections were blocked with 1X Antibody Diluent/Block buffer (Akoya).
Ab-PSMA, natEu-pepa-pic2-C-Hex-KuE and DAPI staining.
Tissues were stained with Ab-PSMA (Ventana 760-6076; 11.75 µg/mL; 100uL per slide) for 30 minutes at room temperature. Slides were washed with TBS-T and secondary goat anti-rabbit was applied for 10 minutes at room temperature. Slides were washed with TBS-T and Akoya’s Opal dye 520 was applied for 10 minutes at room temperature. Antigen retrieval and blocking steps were performed again.
An aqueous solution of natEu-pepa-pic2-C-Hex-KuE (10 µM) was diluted at 1:1 with 1X Diluent/Block (Akoya) and 100 µL were applied per slide for 2 hours at room temperature. For DAPI staining, DAPI working solution (Akoya) was applied for 10 minutes at room temperature before mounting with ProLong™ Gold Antifade Mountant. Slides were imaged by Nuance Multispectral Scope at 20x objective.
5.3 In vivo biodistribution in PSMA +/- mice models, PET-CT and SPECT imaging.
Male, nude, athymic mice were purchased from Jackson Laboratory. Ten days preceding the imaging study, mice were implanted with 1 × 10^6 cells (PC-3 PIP on the right, PC-3 flu on the left shoulder) in 100 µL of a 1:2 mixture of DPBS 1X/matrigel matrix subcutaneously.
A solution of 100 µL of labeled radiotracer was administered via tail vein injection into 8–10-week-old male nude mice (n = 4 per cohort) bearing PSMA+/- tumors.
For biodistribution studies, mice were euthanized at 2 hours (n=4) post-injection of the radio tracer. Organs were extracted, intestinal content removed, and activity assessed via a gamma counter. Biodistribution analysis values are represented as percentage of injected dose per gram of organ weight (% ID/g).

[3] = mouse, in vivo
[4] = 2 h post injection, n = 4, listed as [86Y]YIII-pepa-pic2-C-Hex-KuE

SMILES: COCCOCCOCCOc1ccc(C#Cc2cc(CN3CCN(Cc4cccc(C(=O)O)n4)CCN(Cc4cc(SC[C@H](N)C(=O)NCCCCCC(=O)NCCCC[C@H](NC(=O)N[C@@H](CCC(=O)O)C(=O)O)C(=O)O)cc(C(=O)O)n4)CC3)nc(C(=O)O)c2)cc1 [[86Y]Y-pepa-pic2-C-Hex-KuE, metal not drawn]
- Bone (ROI) ([1]; 0.5 h): 1.3 ± 0.5 %ID/cc
- Heart (ROI) ([1]; 0.5 h): 1.7 ± 0.5 %ID/cc
- L. Kidney (ROI) ([1]; 0.5 h): 12.7 ± 1.6 %ID/cc
- Liver (ROI) ([1]; 0.5 h): 1.4 ± 0.5 %ID/cc
- Muscle (ROI) ([1]; 0.5 h): 0.8 ± 0.3 %ID/cc
- R. Kidney (ROI) ([1]; 0.5 h): 12.0 ± 2.4 %ID/cc
- Tumor + (ROI) ([1]; 0.5 h): 4.6 ± 1.7 %ID/cc
- accumulation in the PSMA- tumor (PET/CT) ([1]; 0.5 h post-injection): no significant accumulation
- Bone (ROI) ([1]; 1 h): 1.0 ± 0.5 %ID/cc
- Heart (ROI) ([1]; 1 h): 1.2 ± 0.3 %ID/cc
- L. Kidney (ROI) ([1]; 1 h): 12.2 ± 5.5 %ID/cc
- Liver (ROI) ([1]; 1 h): 1.1 ± 0.3 %ID/cc
- Muscle (ROI) ([1]; 1 h): 0.8 ± 0.4 %ID/cc
- R. Kidney (ROI) ([1]; 1 h): 11.9 ± 3.0 %ID/cc
- Tumor + (ROI) ([1]; 1 h): 4.4 ± 1.8 %ID/cc
- Bone (ROI) ([1]; 1.5 h): 0.8 ± 0.4 %ID/cc
- Heart (ROI) ([1]; 1.5 h): 1.0 ± 0.5 %ID/cc
- L. Kidney (ROI) ([1]; 1.5 h): 12.2 ± 3.4 %ID/cc
- Liver (ROI) ([1]; 1.5 h): 0.9 ± 0.4 %ID/cc
- Muscle (ROI) ([1]; 1.5 h): 0.6 ± 0.4 %ID/cc
- R. Kidney (ROI) ([1]; 1.5 h): 12.7 ± 2.9 %ID/cc
- Tumor + (ROI) ([1]; 1.5 h): 5.2 ± 1.8 %ID/cc
- Bone (ROI) ([1]; 4 h): 0.5 ± 0.3 %ID/cc
- Heart (ROI) ([1]; 4 h): 0.5 ± 0.3 %ID/cc
- L. Kidney (ROI) ([1]; 4 h): 8.8 ± 1.9 %ID/cc
- Liver (ROI) ([1]; 4 h): 0.7 ± 0.4 %ID/cc
- Muscle (ROI) ([1]; 4 h): 0.4 ± 0.2 %ID/cc
- R. Kidney (ROI) ([1]; 4 h): 8.8 ± 2.3 %ID/cc
- Tumor + (ROI) ([1]; 4 h): 5.2 ± 1.7 %ID/cc
- Bone (ROI) ([1]; 25 h): 0.3 ± 0.2 %ID/cc
- Heart (ROI) ([1]; 25 h): 0.1 ± 0.1 %ID/cc
- L. Kidney (ROI) ([1]; 25 h): 4.0 ± 1.2 %ID/cc
- Liver (ROI) ([1]; 25 h): 0.3 ± 0.2 %ID/cc
- Muscle (ROI) ([1]; 25 h): 0.3 ± 0.3 %ID/cc
- R. Kidney (ROI) ([1]; 25 h): 4.0 ± 1.2 %ID/cc
- Tumor + (ROI) ([1]; 25 h): 3.3 ± 1.0 %ID/cc
- Blood [2, 4]: 1.22 ± 1.01 % ID/g
- Bone [2, 4]: 0.74 ± 0.21 % ID/g
- Heart [2, 4]: 0.54 ± 0.25 % ID/g
- Large Intestine [2, 4]: 1.64 ± 0.79 % ID/g
- Liver [2, 4]: 1.00 ± 0.32 % ID/g
- Lungs [2, 4]: 1.96 ± 0.84 % ID/g
- Muscle [2, 4]: 0.35 ± 0.13 % ID/g
- Small Intestine [2, 4]: 0.59 ± 0.25 % ID/g
- Spleen [2, 4]: 2.43 ± 1.34 % ID/g
- Tumor + ([2]; PSMA+ tumor, 2 h post injection, n = 4, listed as [86Y]YIII-pepa-pic2-C-Hex-KuE): 12.53 ± 2.95 % ID/g
- Tumor - ([2]; PSMA- tumor, 2 h post injection, n = 4, listed as [86Y]YIII-pepa-pic2-C-Hex-KuE): 1.20 ±0.45 % ID/g
- enhancement of probe localization in kidneys compared to tumor tissue ([2]; imaging and biodistribution data): 6–10 fold
- probe remaining intact (urine metabolite analysis) [3]: > 93%
